{
  "source": "paper PMC4312765",
  "target": "Dpy30 C-terminal domain (human), Q9C005",
  "sequence (Q9C005 45-99)": "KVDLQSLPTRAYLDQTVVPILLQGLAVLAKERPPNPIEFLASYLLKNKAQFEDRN",
  "experiment": "ITC; Dpy30FL or Dpy30C with synthetic DBM peptides; conditions not shown",
  "data": [
    {"binder": "DTLYKEQIAEDIVWDIIDELEQIALQQ (modifications not checked)", "note": "[Bre2 Dpy30-binding motif peptide]", "values": [
      {"measurement": "stoichiometry N", "value": 0.5}
    ]}
  ]
}
